# Reference: US10561709B2, “Methods and compositions of neuregulins for preventing, treating or delaying preserved ejection fraction cardiac failure” (Zensun (Shanghai) Science & Technology, Co., Ltd., priority 2014, dated 2020)
# B1: NRG: Recombinant human neuregulin, Neucardin™, 61 amino acids, produced by Shanghai Zensun Sci & Tech Co., Ltd. (protein)
# chain: SHLVKCAEKEKTFCVNGGECFMVKDLSNPSRYLCKCPNEFTGDRCQNYVMASFYKAEELYQ
# modifications: homo sapiens
# Legend:
# [1] = tested on: SHR hypertensive rats with heart failure; experiment: Hemodynamic measurement in hypertensive heart failure rats; assay type: in vivo, rat; settings: captopril 10 mg/kg intragastric 2 times a day; for MAP / −dp/dt: hypertensive heart failure rats, after 3 treatment cycles, rhNRG 6.5 ug/kg i.v. once a day 5 days on/2 days off
# Experimental: (§1) The study is on the therapeutic effect of recombinant human neuregulin (rhNRG) in SHR hypertensive rats with heart failure. Methods: SHR hypertensive rat strains, normal feeding, monitoring changes of cardiac function during feeding. […] Hypertensive heart failure rats were randomly divided into negative control group, NRG treatment group and captopril treatment group. rhNRG was administered continuously for 5 days, withdrawing for 2 days in a treatment cycle, NRG group received 3 treatment cycles. At the end of the second and third treatment cycle, each group of rats was examined by echocardiography to determine the cardiac function changes. After the third treatment cycle, hemodynamics of the rats were detected.
# (§2) The SHR hypertensive rat strains, normal feeding, and monitoring the cardiac function changes during the feeding.
# After the model was successfully established, the rats were randomly divided into negative control group, NRG treatment group and captopril treatment group. RhNRG was administered intravenously, with a dose of 6.5 ug/kg, once a day, 5 days of continuous administration and 2 days of drug withdraw period as a treatment cycle. A total of 3 treatment cycles were administered. At the same time, the NRG group was given drinking water by intragastric administration two times a day. Captopril was administrated 10 mg/kg by intragastric administration, 2 times a day, continuous administration. NRG excipient was administrated by tail vein injection for 3 treatment cycles. The negative control group were given drinking water by intragastric administration and given NRG excipients by tail vein injection.
# At the end of the third treatment cycle, the rats were anesthetized with 3% pentobarbital by intraperitoneal injection. Median incision was made in the neck, the left common carotid artery was isolated and intubated, and the arterial and left ventricular hemodynamic parameters were measured.
# [2] = tested on: SHR hypertensive rats with heart failure; experiment: Echocardiography examination in hypertensive heart failure rats; assay type: in vivo, rat; settings: rhNRG 6.5 ug/kg, after 2 cycles or 3 cycles of treatment
# Experimental: as §1, §2
# After the model was successfully established, the rats were randomly divided into negative control group, NRG treatment group and captopril treatment group. RhNRG was administered intravenously, with a dose of 6.5 ug/kg, once a day, 5 days of continuous administration and 2 days of drug withdraw period as a treatment cycle. A total of 3 treatment cycles were administered. At the same time, the NRG group was given drinking water by intragastric administration two times a day. […]
# [3] = tested on: patients with heart failure with preserved ejection fraction; experiment: Mitral valve flow spectrum of two-dimensional echocardiography, preliminary clinical trial; assay type: in vivo, human
# Experimental: To evaluate the effect of recombinant human neuregulin on cardiac function of patients with heart failure with preserved ejection fraction, the preliminary clinical trial was carried out in the Sixth People's Hospital Affiliated to Shanghai Jiao Tong University, which comprises 2 patients in the placebo group and 2 patients in the experiment group.
# 1.1 left ventricular ejection fraction (LVEF) ≥50% (two-dimensional echocardiography diagnosis);
# 1.2 New York heart function (NYHA) II or III level;
# 4. Data collection: Mitral valve flow spectrum of two-dimensional echocardiography was detected during the screening period, 11-13 d and 30 d.
# [4] = patient 8003, 0.3 ug/kg/day i.v. drip 10 hours a day for 10 days, 11-13 d
# [5] = patient 8003, 0.3 ug/kg/day i.v. drip 10 hours a day for 10 days, 30 d
# [6] = patient 8003, 0.3 ug/kg/day i.v. drip 10 hours a day for 10 days, screening period (before treatment)
# [7] = patient 8004, 0.3 ug/kg/day i.v. drip 10 hours a day for 10 days, 11-13 d
# [8] = patient 8004, 0.3 ug/kg/day i.v. drip 10 hours a day for 10 days, 30 d
# [9] = patient 8004, 0.3 ug/kg/day i.v. drip 10 hours a day for 10 days, screening period (before treatment)
Molecule,MAP [1],−dp/dt [1],"blood pressure ([1]; hypertensive rats, vs 216.5±23.2 and 228.0±26.0 in the other groups (p=0.029, p=0.017))",left ventricular end diastolic and end systolic volume [2],"DT [3, 4] [ms]","IVRT [3, 4] [ms]","DT [3, 5] [ms]","IVRT [3, 5] [ms]","DT [3, 6] [ms]","IVRT [3, 6] [ms]","DT [3, 7] [ms]","IVRT [3, 7] [ms]","DT [3, 8] [ms]","IVRT [3, 8] [ms]","DT [3, 9] [ms]","IVRT [3, 9] [ms]","IVRT and DT values, change over the trial ([3]; patients administered with NRG 0.3 ug/kg/day, versus placebo patients whose values gradually increased)"
"C[C@H](CS)C(=O)N1CCC[C@H]1C(=O)O [captopril, reference compound]",139.9 ± 24.8,−5441.2 ± 1007.3,174.5±33.0,,,,,,,,,,,,,,
B1,182.5 ± 18.8,−7467.6±715.8,,prevent further left ventricular end diastolic and end systolic volume enlargement,203.7,340.1,179.5,345,229.08,374.31,256.15,609.28,255.14,499.08,262.28,621.07,significantly decreased
